Data on 13 sequences can be found in patent US20220333113.

The target of one data set is T1, RIG-I CTD (aa 792-925) (Homo sapiens) (UniProt O95786).
T1 sequence: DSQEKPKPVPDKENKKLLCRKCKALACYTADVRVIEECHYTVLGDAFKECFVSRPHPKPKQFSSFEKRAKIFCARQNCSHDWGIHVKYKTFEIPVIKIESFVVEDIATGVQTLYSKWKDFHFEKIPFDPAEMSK
Kind of data set: EMSA. The note with it: J = 5-(N-3-phenylpropylcarboxyamide)-2'-deoxyuridine (PPdU) at every J (n in listing); SB18T0.01 (5 mM MgCl2) + 20% glycerol, 1 mM DTT, 37 C. On the technique in general: A gel shift assay detects complexes by their altered migration in electrophoresis.
As for “ATCTCTGTGTCATGTGTTTTAATGTCAGTTTAATGATGAGGGACGGGCAG [14832-55_3]”, the Kd (commonly the equilibrium constant for the complex coming apart) was 0.0072 nM.

Staying with this data set, now noted: J = PPdU at every J; SB18T0.01 + 20% glycerol, 1 mM DTT, 37 C.
In the case of “ATCTCTGTGTCATGTGTTTTAATGTCAGTTTAATG [14832-55_10]”, the Kd was 1.5 nM. Still for that read-out and setting: with “ATCTCTGTGTCATGTGTTTTAATGTCAGTTTAATGATG [14832-55_9]” the figure was 0.15 nM; with “ATCTCTGTGTCATGTGTTTTAATGTCAGTTTAATGATGAGGGAC [14832-55_7]”, 0.011 nM. Same read-out and setting: with “ATCTCTGTGTCATGTGTTTTAATGTCAGTTTAATGATGAGGGACGGG [14832-55_6]” the figure was 0.018 nM.

On to “CTGTGTCATGTGTTTTAATGTCAGTTTAATGATGAGG [14832-55_12]”, for which the Kd was found to be 0.34 nM. Same read-out and setting: the result for “GTGTCATGTGTTTTAATGTCAGTTTAATGATGAGGGACGGGCAG [14832-55_5]” reads 36 nM; that for “TCTGTGTCATGTGTTTTAATGTCAGTTTAATGATGA [14832-55_15]”, 0.063 nM. Same read-out and setting: the result for “TCTGTGTCATGTGTTTTAATGTCAGTTTAATGATGAG [14832-55_14]” reads 0.066 nM; that for “TCTGTGTCATGTGTTTTAATGTCAGTTTAATGATGAGG [14832-55_11]”, 0.068 nM. The same measure, in the same setting: with “TCTGTGTCATGTGTTTTAATGTCAGTTTAATGATGAGGGACGGGCAG [14832-55_4]” the figure was 0.084 nM; with “TGTGTCATGTGTTTTAATGTCAGTTTAATGATGAGG [14832-55_13]”, 4.3 nM.

The target in the next data set is T2, RIG-I WT full-length (Homo sapiens) (UniProt O95786).
T2 sequence: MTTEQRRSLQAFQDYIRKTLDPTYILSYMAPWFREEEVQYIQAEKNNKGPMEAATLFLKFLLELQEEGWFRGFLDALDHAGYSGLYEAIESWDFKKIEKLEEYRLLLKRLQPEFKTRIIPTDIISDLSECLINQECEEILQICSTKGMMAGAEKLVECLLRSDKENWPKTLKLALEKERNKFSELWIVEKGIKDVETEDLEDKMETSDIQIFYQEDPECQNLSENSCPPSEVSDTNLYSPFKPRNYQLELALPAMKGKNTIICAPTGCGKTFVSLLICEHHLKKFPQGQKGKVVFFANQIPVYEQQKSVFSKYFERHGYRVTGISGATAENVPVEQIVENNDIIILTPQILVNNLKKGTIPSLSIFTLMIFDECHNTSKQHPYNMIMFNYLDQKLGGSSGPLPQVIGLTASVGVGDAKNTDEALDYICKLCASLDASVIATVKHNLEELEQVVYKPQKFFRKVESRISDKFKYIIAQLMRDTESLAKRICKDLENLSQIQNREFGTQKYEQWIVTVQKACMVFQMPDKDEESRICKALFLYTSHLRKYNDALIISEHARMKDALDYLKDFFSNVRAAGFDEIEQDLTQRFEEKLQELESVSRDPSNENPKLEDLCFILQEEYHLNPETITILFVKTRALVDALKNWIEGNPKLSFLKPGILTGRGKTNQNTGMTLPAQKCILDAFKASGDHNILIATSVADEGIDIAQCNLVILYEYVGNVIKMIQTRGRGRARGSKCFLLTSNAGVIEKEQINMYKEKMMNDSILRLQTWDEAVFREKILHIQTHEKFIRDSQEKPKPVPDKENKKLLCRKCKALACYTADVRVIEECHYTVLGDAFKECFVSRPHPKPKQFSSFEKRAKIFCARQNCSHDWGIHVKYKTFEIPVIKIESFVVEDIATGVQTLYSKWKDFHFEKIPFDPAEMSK
Kind of data set: filter. The note with it: J = 5-(N-3-phenylpropylcarboxyamide)-2'-deoxyuridine (PPdU) at every J (n in listing); SB18T0.01 (5 mM MgCl2) + 1 mM DTT, 37 C.
In the case of “ATCTCTGTGTCATGTGTTTTAATGTCAGTTTAATGATGAGGGACGGGCAG [14832-55_3]”, the Kd was found to be 0.024 nM.

The data set is the same for the next values; noted with them: J = PPdU at every J; SB18T0.01 + 1 mM DTT, 37 C.
For the sequence “ATCTCCGGGAACACTGTCTGATTAATGTCTTGTAAGCGGGTTTTCGGCAG [14833-10_3]”, the Kd is 12 nM.
